Experimental data: a protein production outcome set (Wang et al. 2014)

Assay: label from the status in PepcDB records
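Further: failed if final PepcDB status was selected cloned or expressed and not failed if soluble or beyond.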

Row | Sequence | protein production
1 | MELRTPGTKWSPQGIGSLRRVVWDYSTPEISLFSEEGLKGEQVKLTEALKNSQGLEKPLQVASATVSAGLWLLYPKPLFEDTPYILEPGEYPTSEAWGTSDPSVGSLKPMRLGCPSVEKPGEPRAVVYEAPGFQGRSWEVSRDIYNLQQPEDSQSPHLASVGSLRVLGGCWVGYEKEGFRGHQYLLEEGEYPDWSHWGGYDELLTSLRVIRTDFGDPAVVLFEAMDFEGHGVEVSKALPDVELVQHGPSTQAIHVLSGVWVAYQEVGFSGEQYVLEKGVYRNCEDWGAGNSTLASLQPVLQVGEHDLHFVSKIQLFSRPDFLGDHFSFEDDQAALPASFRPQSCRVHGGSWILFDETNFEGDQHILSEGEFPTLTAMGCLASTVLGSLQKVSLHFSEPSIFLYGLECFEGKEIELSREVRSLQAEGFNNHVLSVRIKGGIWVLCEHSDFRGRQWLVGSCEITNWLTYSGTQRVGSLYPIKQRRVYFRLWNAALGGFLAVPDHVEDMKAGRVVVADPQAGGSCIWYYEDGLLKNQMAPTMSLQVIGPPSPGSKVVLWAESRLPRQTWSISESGHICSQMFEGQILDVKGGRGYDRDHVVLWEPDEDRASQIWTIHVL | failed
2 | MELWTHPTPAAPRLATSTRTRWRRTSRCSQPWATTPGTNSSDASRTPTTASASATSKPQSASARARSVRRSPDCTPRAWSRGARKDRGATTNRPRRPKFCSKRSTTCEATMSNDNETMVADRDPEETREMVRERYAGIATSGQDCCGDVGLDVSGDGGCCSDETEASGSERLGYDADDVASVADGADLGLGCGNPKAFAAMAPGETVLDLGSGAGFDCFLAAQEVGPDGHVIGVDMTPEMISKARENVAKNDAENVEFRLGEIGHLPVADESVNVVISNCVVNLAPEKQRVFDDTYRVLRPGGRVAISDVVQTAPFPDDVQMDPDSLTGCVAGASTVDDLKAMLDEAGFEAVEIAPKDESTEFISDWDADRDLGEYLVSATIEARKPARDD | failed
3 | MEMESAAASTRFHQPHMERKMSAMACEIFNELRLEGKLCDVVIKVNGFEFSAHKNILCSCSSYFRALFTSGWNNTEKKVYNIPGISPDMMKLIIEYAYTRTVPITPDNVEKLLAAADQFNIMGIVRGCCEFLKSELCLDNCIGICKFTDYYYCPELRQKAYMFILHNFEEMVKVSAEFLELSVTELKDIIEKDELNVKQEDAVFEAILKWISHDPQNRKQHISILLPKVRLALMHAEYFMNNVKMNDYVKDSEECKPVIINALKAMYDLNMNGPSNSDFTNPLTRPRLPYAILFAIGGWSGGSPTNAIEAYDARADRWVNVTCEEESPRAYHGAAYLKGYVYIIGGFDSVDYFNSVKRFDPVKKTWHQVAPMHSRRCYVSVTVLGNFIYAMGGFDGYVRLNTAERYEPETNQWTLIAPMHEQRSDASATTLYGKVYICGGFNGNECLFTAEVYNTESNQWTVIAPMRSRRSGIGVIAYGEHVYAVGGFDGANRLRSAEAYSPVANTWRTIPTMFNPRSNFGIEVVDDLLFVVGGFNGFTTTFNVECYDEKTDEWYDAHGMSIYRSALSCCVVPGLANVEEYAARRDNFPGLALRDEVKYSASTSTLPVRASSFS | failed
4 | MEMMQDSFQVHRIPQSKYVDGVRWLPQASALNRFFATASYDADCDSSSIEIQSLDPNPRGNHNTNPLIESLSSWTSPSRVSSLEVAGNGGGGGSFKPMVSAATSSGSLHVLMIDLVEGAAIEEFYAAEGERFHVGRVEGVDWREGGECVTVGEDGRVNVVKIVNGEGLRYRKVFDGNGLVAYRAVKWASPTEFVTGGYGFGLQLWDQRKSGEAVSQLKGNWFQGKTSAIVHSIDIHPSRKHTCIAGGSSGTVFAWDLRWPQQPIVLSGVGASENINNPLSESEVWEVQYDSYTKSNVSSSRILPVMTCSEDGILGIIEQGEEPIELLAEPCAINSFDIDRQNPQDVICSLEWESIAVFSRP | failed
5 | MEMRFFVLGAGSWGTVFAQMLHENGEEVILWARRKEIVDLINVSHTSPYVEESKITVRATNDLEEIKKEDILVIAIPVQYIREHLLRLPVKPSMVLNLSKGIEIKTGKRVSEIVEEILGCPYAVLSGPSHAEEVAKKLPTAVTLAGENSKELQKRISTEYFRVYTCEDVVGVEIAGALKNVIAIAAGILDGFGGWDNAKAALETRGIYEIARFGMFFGADQKTFMGLAGIGDLMVTCNSRYSRNRRFGELIARGFNPLKLLESSNQVVEGAFTVKAVMKIAKENKIDMPISEEVYRVVYEGKPPLQSMRDLMRRSLKDEFWASVVDSSL | not failed
6 | MEMSKQLGKKFNLLTLLAYAAPTMALMLFMSIYTMVDGMFIARYVGATALSAVNIFFPIYGLIIAIALMLGTGANAIIAKKIGENNEEEAKENFTFIVICGAVLGLVITVFGLLLMEPILLMLGAGATEELFDFTYTYAKIILCTSPFMILQMLFQNFFVTAGKPNLGLTITVVGGVANIVLDYVFIVLLQMGIAGAGIATAIGIFIPAAYGFVYFIYNKESGLHFVKPKVDGKVLLNSCINGSSEMVSNLASSIVTFAFNLLMIKHLGVDGVAAITIMLYVMFILSSISMGYSAGVAPIISYNYGSKNSSQLKRVFNYSLLIIVIGSVTMYGVSMMFGAYFIQFMAPEGSAVYHIAIEGLNIFSISFLFMGFNIFSSMVFTAFSNGKISAAISFLRTLVFVLASLWILPAILGVTGIWLAIPLAEILSVIVCIFFLTHYRNDYHYA | failed
7 | MEMVKSRSKVAIIGAGFVGASAAFTMALRQTANELVLIDVFKEKAIGEAMDINHGLPFMGQMSLYAGDYSDVKDCDVIVVTAGANRKPGETRLDLAKKNVMIAKEVTQNIMKYYNHGVILVVSNPVDIITYMIQKWSGLPVGKVIGSGTVLDSIRFRYLLSEKLGVDVKNVHGYIIGEHGDSQLPLWSCTHIAGKNINEYIDDPKCNFTEEDKKKIAEDVKTAGATIIKNKGATYYGIAVSINTIVETLLKNQNTIRTVGTVINGMYGIEDVAISLPSIVNSEGVQEVLQFNLTPEEEEALRFSAEQVKKVLNEVKNL | not failed
8 | MENEKILNPIIIQRADPMIYKHNDGYYYFTASVPEYDRIEVRKAKTIEGLRNAEPVDVWRRHESGEMSNLIWAPEIHFINGAWYIYFAAAPDKNIEDDTFNHRMFVIQNENENPFTGNWVEKGRIKTAWESFSLDATIFEHNEKLYYVWAQQDINIKGHSNIYIAEMENPWTLKTKPVMLTKPELEWEIKGFWVNEGPAVLKKNGKIFITYSASATDVNYCIGMLTAEENSNLLDKNSWTKSQTPVFKTSMENHQYGPGHNSFTVSEDGKHDVIVYHARNYTEIKGDPLYDPNRHTRAQIINWREDGTPDFGVPEVDSLEIETPVKA | not failed
9 | MENINFFIVFIEGILSIFSPCILPILPIYLSMLSNSSVEDIRDSNFKSGVLIRNTLFFTLGISTTFFILGSSISALSSFFNTNKNIIMILGGVIILFMGLFYLGVINLNILNREKRLNFKYKNMSPLSAFVLGFTFSFGWTPCIGPILASVLVMASSSKNLLMSNLLILVYTIGFILPFIIASLFYGKLFKKFDGIKKHMDLIKKISGIFIIIAGLIMLVGGIRNMNNEIKINNNPQINKSESANKDSKNESDNKKQEEGNKIPPIDFTLYDQYGNKHTLSEYKGKTIFLNFWATWCPPCRGEMPYIDELYKEYNENKDDVVILGVASPNLGREGSEEHIKNFLKEENHVFPVVLDENGAMVYQYGINAFPSTFIINKEGYITKYIPGAMTKETMKTLIESER | failed
10 | MENLKNIQPREDFNWEEFEAGGVHAAVSRQEQEAAYDKTLNTIKEKEVVMGRVTAINKREVVINVGYKSEGVVPATEFRYNPELKVGDEVEVYIENQEDKKGQLVLSHRKARAARSWERVNEALEKDEIVKGYVKCRTKGGMIVDVFGIEAFLPGSQIDVRPIRDYDAFVEKTMEFKIVKINQEYKNVVVSHKVLIEAELEQQKKEIIGKLEKGQVLEGIVKNITSYGVFIDLGGVDGLIHITDLSWGRVAHPEEIVQLDQKINVVILDFDEDRKRIALGLKQLMPHPWDALDSELKVGDKVKGKVVVMADYGAFVEIAQGVEGLIHVSEMSWTQHLRSAQDFLHVGDEVEAVILTLDREERKMSLGLKQLKPDPWADIETRFPVGSRHHARVRNFTNFGVFVEIEEGVDGLIHISDLSWTKKIKHPSEFTEVGADIEVQVIEIDKENRRLSLGHKQLEENPWDVFETVFTVGSIHEGTVIEVMDKGAVVSLPYGVEGFATPKHMVKEDGSQAVLEEKLPFKVIEFNKDAKRIIVSHSRVFEDEQKMAQREANAERKAEAKAAQKEAAAEAANPAQAVEKATLGDLGELAALKEKLSEN | failed
11 | MENLTNDVITILQYLLPGFVSAWVFYSLTSYPKPSQFERVVQALIFTIFIQAIVVVVEFSVRWLCATYEITGVPDKFGLVGSVVTAILLGVAFAGFANNDLLHKCLRRCLITRETSYLRNGLVPFYRTLLLLSYT | failed
12 | MENPLFCPDCGMMRDNCTCKGKGRLSFFRNIIRPPEKSDTLNEDLQRRYPHIPPEIIENFPFPQPRPGQLDIINDIYQAIEEGYRYVILEAGTGTGKSAIACTLAGIYQPAYILTMTKQLQDQYAREFGFPVVKGRSNFFCLNDNLESTCDMGTCQTLPSSEKFQCPYGVVRGETLLGEEAFQDSYGNRVFFKTAEHCQYWEQKAEAINSPITLMNYDYAFLELNYVGHFDRRNLMILDEAHNIEDKLMRRLEVTISNKRLSKDIRRTIPPSMLREDDPAEWVLQIEAIADHYSDLELDSMSRRRRDRIKRTIKRLSELRMSLEDEPKNWVIDADDDSVSFKPLRVHHYAHDRLFSYSEVCLFMSATILSERLFCQWLGINPGDAYFVRVDSPFPASRRPIELKIAGKMSRNRIRHTAPETIPILNRILERHKNDKGLIHTHNYRCQRFIMDNIPSRRLIDHKASNREAVLRYFEESDEPLVLVSPSMSEGVDLPYDKCRFQVIYKIPFPYLGDKQVNRRQRMDQRWYAYKTIMTLMQAYGRGMRAHDDSCYTYILDGNIEMIFRSPLYRSLLPEFFKEAIVNE | failed
13 | MENQEVVLSIDAIQEPEQIKFNMSLKNQSERAIEFQFSTGQKFELVVYDSEHKERYRYSKEKMFTQAFQNLTLESGETYDFSDVWKEVPEPGTYEVKVTFKGRAENLKQVQAVQQFEVK | not failed
14 | MENRRIVIITGANSGIGKEAAQRFANEGDHVIMACRNIAFSRKVQHDIIAASGNDHVDLLELDVSSFASIRTFCTTFNSQYKRLDILIHNAAYFNHGEPYRLSPDGIELTFATNVFGPYLLTSLLRDRLKQSEDPRILHAGSNIIKHFFDPKQTFDLDLLQGNHGTKSYSVYKMYCQSKMALMLLTFQMAEVFADDGIKVNALQINGAKMSKRTIQKVKPWWRPIAWGQNLFFPPPSYMADKYFTICTSDKYKQTTGKLFNDKLEIMEPSPTHYPGFFKQMKLLLGSNVYPAYENTNIREKLWALCKELVGELEHHHHHH | not failed
15 | MENSFLSSKLVFLLAIALVLFLNTELSFLTAEGASDSNSKVYIVYLGQREHDDPELLTASHHQMLESLLQSKEDAHNSMIYSYQHGFSGFAALLTSSQAKKISEHPEVIHVIPNRILKLKTTRIWDHLGLSPIPTSFSSSSSAKAKGLLHNTSMGSEAIIGVVDSGIWPESKVFNDQGLGPIPKRWRGKCRSGEKFNATMHCNKKLIGAKYYQSGLLAMNGGKFNRIIIRDFKSNRDATGHGTHTATIAGGSFVPNASFYGLARGTVRGGAPRARIASYKACWNVVGWGGICSSADMWKAYDDAIHDQVDVLSVSIGASIPEDSERVDFIAAFHAVAKGITVVAAAGNDGSGAQTICNVAPWLLTVAATTLDRSFPTKITLGNNQTFFGKTILEFDSTHPSSIAGRGVVAVILAKKPDDRPAPDNSYIFTDYEIGTHILQYIRTTRSPTVRISAATTLTGQPATPKVAAFSSRGPNSVSPAILKPDIAAPGVSILAAVSPLDPGAFNGFKLHSGTSMSTPVVSGIIVLLKSLHPKWSPAAMRSALVTTAWRTSPSGEPIFAQGSNKKLADPFDYGGGLVNPEKAAKPGLVYDMGIKDYINYMCSAGYNDSSISRVLGKKTKCPIPKPSMLDINLPSITIPNLEKEVTLTRTVTNVGPIKSVYRAVIESPLGITLTVNPTILVFKSAAKRVLTFSVKAKTSHKVNSGYFFGSLTWTDGVHDVTIPVSVKTTISM | failed
16 | MENSLNQNKVWGWGELALMYFPNISQKSATMQLLKWIRVSDELVGQLEKSGWHPGKKYLTPRQKDYIVGHLGEP | failed
